Results taken from patent US20140087995A1 (published 2014).
Numbered stars: 1 amine (or outer) side, 2 acyl side, 3 side chain; on linkers, the order of the positions; unused ones are H or OH. Bridge positions count the residues as written; N and C are the ends. Side chains are listed from the residue outwards. Ends that are not written are not given here. * marks the point of attachment. C20 diacid = O=C(O)CCCCCCCCCCCCCCCCCCC(=O)*; γGlu = O=C(O)[C@H](CCC(=O)[*:2])N[*:1]; AEEA = NCCOCCOCC(=O)O

T1: human calcitonin receptor (human, UniProt P30988 25-474)
T1 construct: whole, on cells; Assay used cell membranes of the transfected BHK cells; also called hCTR; hCT
T1 sequence (looked up): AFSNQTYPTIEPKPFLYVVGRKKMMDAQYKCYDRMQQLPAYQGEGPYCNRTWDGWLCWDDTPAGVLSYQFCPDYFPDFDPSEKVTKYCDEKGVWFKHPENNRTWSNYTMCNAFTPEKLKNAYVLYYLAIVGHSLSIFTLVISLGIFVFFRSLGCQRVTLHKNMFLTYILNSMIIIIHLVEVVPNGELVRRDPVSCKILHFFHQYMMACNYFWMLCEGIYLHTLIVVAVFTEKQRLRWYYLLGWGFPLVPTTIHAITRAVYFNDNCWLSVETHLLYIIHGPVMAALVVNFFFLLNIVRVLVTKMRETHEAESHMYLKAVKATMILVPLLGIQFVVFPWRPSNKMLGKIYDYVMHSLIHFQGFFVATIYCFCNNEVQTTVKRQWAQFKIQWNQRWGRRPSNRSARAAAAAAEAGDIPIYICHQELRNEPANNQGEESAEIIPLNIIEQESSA


Target: T1, human calcitonin receptor
Test: SPA radioligand competition (125I-calcitonin), membranes of BHK cells with human calcitonin receptor
How it was run: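 BHK hCTR membranes 35 ng/μL + SPA beads 0.05 mg/well; buffer 50 mM Hepes pH 7.4, 1 mM CaCl2, 5 mM MgCl₂, 0.1% OA, 0.02% Tween20. 120 min, 25° C., shaking. Scintillation count; IC50 by one-site binding competition.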

Row | IC50 | Binder
1 | 9.63 nM | K([AEEA-γGlu-C20 diacid])CNTATCATQRLANFLRHSSPNFGAIPSSTNVGPHTY-NH2 (disulfide 2-7; N-terminus assumed; SMILES CC[C@H](C)[C@H](NC(=O)[C@H](C)NC(=O)CNC(=O)[C@H](Cc1ccccc1)NC(=O)[C@H](CC(N)=O)NC(=O)[C@@H]1CCCN1C(=O)[C@H](CO)NC(=O)[C@H](CO)NC(=O)[C@H](Cc1c[nH]cn1)NC(=O)[C@H](CCCNC(=N)N)NC(=O)[C@H](CC(C)C)NC(=O)[C@H](Cc1ccccc1)NC(=O)[C@H](CC(N)=O)NC(=O)[C@H](C)NC(=O)[C@H](CC(C)C)NC(=O)[C@H](CCCNC(=N)N)NC(=O)[C@H](CCC(N)=O)NC(=O)[C@@H](NC(=O)[C@H](C)NC(=O)[C@@H]1CSSC[C@H](NC(=O)[C@@H](N)CCCCNC(=O)COCCOCCNC(=O)CC[C@H](NC(=O)CCCCCCCCCCCCCCCCCCC(=O)O)C(=O)O)C(=O)N[C@@H](CC(N)=O)C(=O)N[C@@H]([C@@H](C)O)C(=O)N[C@@H](C)C(=O)N[C@@H]([C@@H](C)O)C(=O)N1)[C@@H](C)O)C(=O)N1CCC[C@H]1C(=O)N[C@@H](CO)C(=O)N[C@@H](CO)C(=O)N[C@H](C(=O)N[C@@H](CC(N)=O)C(=O)N[C@H](C(=O)NCC(=O)N1CCC[C@H]1C(=O)N[C@@H](Cc1c[nH]cn1)C(=O)N[C@H](C(=O)N[C@@H](Cc1ccc(O)cc1)C(N)=O)[C@@H](C)O)C(C)C)[C@@H](C)O, Synthetic analogue; also called compound 58)
2 | 130 nM | K([γGlu-C20 diacid])CNTATCATQRLARFLRHSSPNFGAIPSSTPVGSNTY-NH2 (disulfide 2-7; N-terminus assumed; SMILES CC[C@H](C)[C@H](NC(=O)[C@H](C)NC(=O)CNC(=O)[C@H](Cc1ccccc1)NC(=O)[C@H](CC(N)=O)NC(=O)[C@@H]1CCCN1C(=O)[C@H](CO)NC(=O)[C@H](CO)NC(=O)[C@H](Cc1c[nH]cn1)NC(=O)[C@H](CCCNC(=N)N)NC(=O)[C@H](CC(C)C)NC(=O)[C@H](Cc1ccccc1)NC(=O)[C@H](CCCNC(=N)N)NC(=O)[C@H](C)NC(=O)[C@H](CC(C)C)NC(=O)[C@H](CCCNC(=N)N)NC(=O)[C@H](CCC(N)=O)NC(=O)[C@@H](NC(=O)[C@H](C)NC(=O)[C@@H]1CSSC[C@H](NC(=O)[C@@H](N)CCCCNC(=O)CC[C@H](NC(=O)CCCCCCCCCCCCCCCCCCC(=O)O)C(=O)O)C(=O)N[C@@H](CC(N)=O)C(=O)N[C@@H]([C@@H](C)O)C(=O)N[C@@H](C)C(=O)N[C@@H]([C@@H](C)O)C(=O)N1)[C@@H](C)O)C(=O)N1CCC[C@H]1C(=O)N[C@@H](CO)C(=O)N[C@@H](CO)C(=O)N[C@H](C(=O)N1CCC[C@H]1C(=O)N[C@H](C(=O)NCC(=O)N[C@@H](CO)C(=O)N[C@@H](CC(N)=O)C(=O)N[C@H](C(=O)N[C@@H](Cc1ccc(O)cc1)C(N)=O)[C@@H](C)O)C(C)C)[C@@H](C)O, Synthetic analogue; also called compound 63)
3 | 1.38 nM | K([AEEA-γGlu-C20 diacid])CNTATCATQRLANFLRHSSPNFGAIPSSTNVGPNTY-NH2 (disulfide 2-7; N-terminus assumed; SMILES CC[C@H](C)[C@H](NC(=O)[C@H](C)NC(=O)CNC(=O)[C@H](Cc1ccccc1)NC(=O)[C@H](CC(N)=O)NC(=O)[C@@H]1CCCN1C(=O)[C@H](CO)NC(=O)[C@H](CO)NC(=O)[C@H](Cc1c[nH]cn1)NC(=O)[C@H](CCCNC(=N)N)NC(=O)[C@H](CC(C)C)NC(=O)[C@H](Cc1ccccc1)NC(=O)[C@H](CC(N)=O)NC(=O)[C@H](C)NC(=O)[C@H](CC(C)C)NC(=O)[C@H](CCCNC(=N)N)NC(=O)[C@H](CCC(N)=O)NC(=O)[C@@H](NC(=O)[C@H](C)NC(=O)[C@@H]1CSSC[C@H](NC(=O)[C@@H](N)CCCCNC(=O)COCCOCCNC(=O)CC[C@H](NC(=O)CCCCCCCCCCCCCCCCCCC(=O)O)C(=O)O)C(=O)N[C@@H](CC(N)=O)C(=O)N[C@@H]([C@@H](C)O)C(=O)N[C@@H](C)C(=O)N[C@@H]([C@@H](C)O)C(=O)N1)[C@@H](C)O)C(=O)N1CCC[C@H]1C(=O)N[C@@H](CO)C(=O)N[C@@H](CO)C(=O)N[C@H](C(=O)N[C@@H](CC(N)=O)C(=O)N[C@H](C(=O)NCC(=O)N1CCC[C@H]1C(=O)N[C@@H](CC(N)=O)C(=O)N[C@H](C(=O)N[C@@H](Cc1ccc(O)cc1)C(N)=O)[C@@H](C)O)C(C)C)[C@@H](C)O, Synthetic analogue; also called compound 50)
4 | 31.4 nM | K([γGlu-C20 diacid])CNTATCATQRLANFLRHSSPNFGAIPSSTNVGSHTY-NH2 (disulfide 2-7; N-terminus assumed; SMILES CC[C@H](C)[C@H](NC(=O)[C@H](C)NC(=O)CNC(=O)[C@H](Cc1ccccc1)NC(=O)[C@H](CC(N)=O)NC(=O)[C@@H]1CCCN1C(=O)[C@H](CO)NC(=O)[C@H](CO)NC(=O)[C@H](Cc1c[nH]cn1)NC(=O)[C@H](CCCNC(=N)N)NC(=O)[C@H](CC(C)C)NC(=O)[C@H](Cc1ccccc1)NC(=O)[C@H](CC(N)=O)NC(=O)[C@H](C)NC(=O)[C@H](CC(C)C)NC(=O)[C@H](CCCNC(=N)N)NC(=O)[C@H](CCC(N)=O)NC(=O)[C@@H](NC(=O)[C@H](C)NC(=O)[C@@H]1CSSC[C@H](NC(=O)[C@@H](N)CCCCNC(=O)CC[C@H](NC(=O)CCCCCCCCCCCCCCCCCCC(=O)O)C(=O)O)C(=O)N[C@@H](CC(N)=O)C(=O)N[C@@H]([C@@H](C)O)C(=O)N[C@@H](C)C(=O)N[C@@H]([C@@H](C)O)C(=O)N1)[C@@H](C)O)C(=O)N1CCC[C@H]1C(=O)N[C@@H](CO)C(=O)N[C@@H](CO)C(=O)N[C@H](C(=O)N[C@@H](CC(N)=O)C(=O)N[C@H](C(=O)NCC(=O)N[C@@H](CO)C(=O)N[C@@H](Cc1c[nH]cn1)C(=O)N[C@H](C(=O)N[C@@H](Cc1ccc(O)cc1)C(N)=O)[C@@H](C)O)C(C)C)[C@@H](C)O, Synthetic analogue; also called compound 60) [N^ε1-[(4S)-4-carboxy-4-(19-carboxynonadecanoylamino)butanoyl]-[Arg17,Pro21,Pro27,His35]-h-amylin]
5 | 8.11 nM | K([AEEA-γGlu-C20 diacid])CNTATCATQRLAHFLRHSSPNFGAIPSSTPVGSNTY-NH2 (disulfide 2-7; N-terminus assumed; SMILES CC[C@H](C)[C@H](NC(=O)[C@H](C)NC(=O)CNC(=O)[C@H](Cc1ccccc1)NC(=O)[C@H](CC(N)=O)NC(=O)[C@@H]1CCCN1C(=O)[C@H](CO)NC(=O)[C@H](CO)NC(=O)[C@H](Cc1c[nH]cn1)NC(=O)[C@H](CCCNC(=N)N)NC(=O)[C@H](CC(C)C)NC(=O)[C@H](Cc1ccccc1)NC(=O)[C@H](Cc1c[nH]cn1)NC(=O)[C@H](C)NC(=O)[C@H](CC(C)C)NC(=O)[C@H](CCCNC(=N)N)NC(=O)[C@H](CCC(N)=O)NC(=O)[C@@H](NC(=O)[C@H](C)NC(=O)[C@@H]1CSSC[C@H](NC(=O)[C@@H](N)CCCCNC(=O)COCCOCCNC(=O)CC[C@H](NC(=O)CCCCCCCCCCCCCCCCCCC(=O)O)C(=O)O)C(=O)N[C@@H](CC(N)=O)C(=O)N[C@@H]([C@@H](C)O)C(=O)N[C@@H](C)C(=O)N[C@@H]([C@@H](C)O)C(=O)N1)[C@@H](C)O)C(=O)N1CCC[C@H]1C(=O)N[C@@H](CO)C(=O)N[C@@H](CO)C(=O)N[C@H](C(=O)N1CCC[C@H]1C(=O)N[C@H](C(=O)NCC(=O)N[C@@H](CO)C(=O)N[C@@H](CC(N)=O)C(=O)N[C@H](C(=O)N[C@@H](Cc1ccc(O)cc1)C(N)=O)[C@@H](C)O)C(C)C)[C@@H](C)O, Synthetic analogue; also called compound 61)
6 | 31.1 nM | K([γGlu-C20 diacid])CNTATCATQRLAEFLRHSSPNFGAIPSSTNVGSRTY-NH2 (disulfide 2-7; N-terminus assumed; SMILES CC[C@H](C)[C@H](NC(=O)[C@H](C)NC(=O)CNC(=O)[C@H](Cc1ccccc1)NC(=O)[C@H](CC(N)=O)NC(=O)[C@@H]1CCCN1C(=O)[C@H](CO)NC(=O)[C@H](CO)NC(=O)[C@H](Cc1c[nH]cn1)NC(=O)[C@H](CCCNC(=N)N)NC(=O)[C@H](CC(C)C)NC(=O)[C@H](Cc1ccccc1)NC(=O)[C@H](CCC(=O)O)NC(=O)[C@H](C)NC(=O)[C@H](CC(C)C)NC(=O)[C@H](CCCNC(=N)N)NC(=O)[C@H](CCC(N)=O)NC(=O)[C@@H](NC(=O)[C@H](C)NC(=O)[C@@H]1CSSC[C@H](NC(=O)[C@@H](N)CCCCNC(=O)CC[C@H](NC(=O)CCCCCCCCCCCCCCCCCCC(=O)O)C(=O)O)C(=O)N[C@@H](CC(N)=O)C(=O)N[C@@H]([C@@H](C)O)C(=O)N[C@@H](C)C(=O)N[C@@H]([C@@H](C)O)C(=O)N1)[C@@H](C)O)C(=O)N1CCC[C@H]1C(=O)N[C@@H](CO)C(=O)N[C@@H](CO)C(=O)N[C@H](C(=O)N[C@@H](CC(N)=O)C(=O)N[C@H](C(=O)NCC(=O)N[C@@H](CO)C(=O)N[C@@H](CCCNC(=N)N)C(=O)N[C@H](C(=O)N[C@@H](Cc1ccc(O)cc1)C(N)=O)[C@@H](C)O)C(C)C)[C@@H](C)O, Synthetic analogue; also called compound 51)
